Measured values as given in publication PMC10033314.

B1: A disintegrin-like and metalloproteinase with thrombospondin type 1 motifs 1 (ADAMTS1), wild type (enzyme)
chain: FVSSHRYVETMLVADQSMAEFHGSGLKHYLLTLFSVAARLYKHPSIRNSVSLVVVKILVIHDEQKGPEVTSNAALTLRNFCNWQKQHNPPSDRDAEHYDTAILFTRQDLCGSQTCDTLGMADVGTVCDPSRSCSVIEDDGLQAAFTTAHELGHVFNMPHDDAKQCASLNGVNQDSHMMASMLSNLDHSQPWSPCSAYMITSFLDNGHGECLMDKPQNPIQLPGDLPGTSYDANRQCQFTFGEDSKHCPDAASTCSTLWCTGTSGGVLVCQTKHFPWADGTSCGEGKWCINGKCVNKTDRKHFDTPFHGSWGMWGPWGDCSRTCGGGVQYTMRECDNPVPKNGGKYCEGKRVRYRSCNLEDCPDNNGKTFREEQCEAHNEFSKASFGSGPAVEWIPKYAGVSPKDRCKLICQAKGIGYFFVLQPKVVDGTPCSPDSTSVCVQGQCVKAGCDRIIDSKKKFDKCGVCGGNGSTCKKISGSVTSAKPGYHDIITIPTGATNIEVKQRNQRGSRNNGSFLAIKAADGTYILNGDYTLSTLEQDIMYKGVVLRYSGSSAALERIRSFSPLKEPLTIQVLTVGNALRPKIKYTYFVKKKKESFNAIPTFSAWVIEEWGECSKSCELGWQRRLVECRDINGQPASECAKEVKPASTRPCADHPCPQWQLGEWSSCSKTCGKGYKKRSLKCLSHDGGVLSHESCDPLKKPKHFIDFCTMAECS

Legend:
[1] = molecular target: Quenched-fluorescent peptide substrate fluorescein-5(6)-carbonyl-Ala-Glu-Leu-Asn-Gly-Arg-Pro-Ile-Ser-Ile-Ala-Lys(5(6)-TAMRA)
[2] = molecular target: Biglycan, full length, C-terminal 6x-His (human) (UniProt P21810)
UniProt P21810, sequence (P21810 38-368): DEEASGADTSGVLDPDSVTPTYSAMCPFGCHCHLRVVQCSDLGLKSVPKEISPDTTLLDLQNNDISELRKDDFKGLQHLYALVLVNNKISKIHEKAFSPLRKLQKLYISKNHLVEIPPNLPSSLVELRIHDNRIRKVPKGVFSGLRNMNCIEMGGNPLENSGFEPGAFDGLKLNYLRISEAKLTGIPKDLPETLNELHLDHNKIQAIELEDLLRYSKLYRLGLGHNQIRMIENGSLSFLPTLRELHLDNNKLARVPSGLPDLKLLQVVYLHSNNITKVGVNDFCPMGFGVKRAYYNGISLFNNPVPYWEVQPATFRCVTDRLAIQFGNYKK

[3] = molecular target: Versican V1-5GAG (truncated V1, residues 21-694) (UniProt P13611)
[4] = molecular target: Full-length versican V1 (UniProt P13611)
[5] = molecular target: Versican V1-5GAG (truncated V1, residues 21-694) (UniProt P13611); remark: listed apart in the source
[6] = molecular target: Full-length versican V1 (UniProt P13611); remark: listed apart in the source

Row | Molecule | kcat/Km for proteolysis of the QF peptide [1] | reduction of the 30 kDa biglycan fragment against WT ADAMTS1; variant at 50 nM, 24 h at 37 °C, immunoblot and densitometry [2] | kcat/Km for cleavage of V1-5GAG (50 nM), time course with versikine ELISA [3] | kcat/Km for cleavage of V1 (50 nM) at Glu441-Ala442, time course with versikine ELISA, no cofactor [4] | kcat/Km for cleavage of V1-5GAG (50 nM) at Glu441-Ala442, time course with versikine ELISA [5] | kcat/Km for cleavage of FL versican, as told in the discussion and the abstract [6]
1 | ADAMTS1 variant MDTC (truncated after the cysteine-rich domain) (domain or fragment) | 4500 M⁻¹ s⁻¹ | 75 % reduction | 260 M⁻¹ s⁻¹ |  |  | 
2 | B1 | 4200 M⁻¹ s⁻¹ |  |  | 3400 M⁻¹ s⁻¹ | 4200 M⁻¹ s⁻¹ | 3600 M⁻¹ s⁻¹
